From the supplement of paper PMC10126150
± gives the standard deviation of the averaged measurements.

Each sequence was assayed on ATP (assay: switch fluorescence ratio, 500 uM ATP over buffer (Cy3 cluster intensity, sum of 5 cycles each) (fold (ratio)); higher = stronger signal-on switching upon ATP binding; sequences stand for … in TCGTCGGCAGCGTCAGATGTGTATAAGAGACAGTTTTTTTTTTTTTTTTTTTTTTTTT…TC). Conditions: aptamer strand: ATP DNA aptamer (quencher-CACCTGGGGGAGTATTGCGGAGGAAGG + anchor), 100 nM annealed; ATP concentration: 500 uM.
Summary of the method: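 The fluorescence ratio divides summed target-cycle Cy3 intensity by summed buffer-cycle Cy3 intensity for each cluster and is averaged per switch-domain sequence. Cy3-labelled switching-strand clusters on a modified Illumina MiSeq flow-cell were annealed to 100 nM quencher-labelled ATP aptamer, then imaged in selection buffer and again after 15 min with 500 uM ATP at 22 °C. Five such cycles were run, with NaOH stripping and re-annealing between them, and clusters outside 100-1000 RFU were excluded.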
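Also: ATP exposure 15 min at 22 °C before imaging.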

Sequence	switch fluorescence ratio
GGTTATTCGG	0.993 ± 0.053
AACGTCTCGA	1.01 ± 0.025
TATGCTTATT	1 ± 0.024
GTTTGCATTT	0.981 ± 0.015
CGGTTACGAG	0.9952 ± 0.0029
GGGAGTTCGG	0.9597 ± 0.0092
GCCTGTATTG	0.982 ± 0.027
ATGGACACGC	1.03 ± 0.042
CATTGATTTT	1.013 ± 0.0022
TCGTTAGGGG	0.999 ± 0.019
CATGGTCTCA	1.017 ± 0.0017
TTTTGAGCAT	1.07 ± 0.12
CTGGTGGTTT	1.01 ± 0.0047
TTAATCCAGT	1.02 ± 0.035
AGGGTTCTGG	0.971 ± 0.028
TGATGGCGTT	1 ± 0.031
TCGTCTGCGG	1.04 ± 0.03
TGCCTAGTTT	0.995 ± 0.064
CGTCTGGTGC	1.03 ± 0.029
AACGTAGTCG	1.031 ± 0.0046
ACAGCTGAAG	1.002 ± 0.0066
GCCTTGAAGT	1 ± 0.013
ATAGGCGGTT	1.02 ± 0.012
CTTCAGGGGA	1.01 ± 0.061
GTGGGGGATT	0.996 ± 0.03

Sequence	switch fluorescence ratio
GGGAGCTCTG	1 ± 0.014
ATTGTGTCAC	1 ± 0.028
AAGGGACGGC	0.9648 ± 0.0078
ATTAATTGGG	1.01 ± 0.036
TGCGTTTGTT	0.996 ± 0.029
TGGGTATCTT	1.03 ± 0.061
CGGGCTTTAT	1.006 ± 0.0073
AAGATGCAGC	1.05 ± 0.12
TTAGGCGGGA	0.995 ± 0.046
TTGGGGGGTA	0.987 ± 0.028
TGTCAGGGGA	1.018 ± 0.007
CTGGTCGCGT	0.9873 ± 0.0081
TAGGGACGGG	1.07 ± 0.087
CTTTCTATGT	0.986 ± 0.029
GCTGATCTTA	0.998 ± 0.034
TCGAAGAGTT	0.994 ± 0.033
AGATGCATGG	1.02 ± 0.025
GAGATTGCAG	0.974 ± 0.069
TTTGTTTGGG	0.998 ± 0.033
TGTAGGGCGA	0.99 ± 0.034
TCCAATCTCT	1.06 ± 0.02
GTTCGAAAGG	1.022 ± 0.0095
ATGGGGGGT	0.992 ± 0.028
GCGGGGGGGT	1.01 ± 0.038
CAACAGAGTG	1.07 ± 0.085

Sequence	switch fluorescence ratio
TGGAGGGTTT	1.07 ± 0.1
GACGATGGGT	1.029 ± 0.0032
TCGATGTTTC	1.01 ± 0.026
AAGAGCCATC	0.9527 ± 0.009
TTCAAGGGGG	1 ± 0.018
CATAGCTTTT	1.01 ± 0.012
CGCACCTGTA	1.04 ± 0.037
GCAGGGCGGG	0.99 ± 0.011
CGGTGGTGGG	1.031 ± 0.0066
ATCGTGTTGA	0.971 ± 0.02
GATCAATGGG	0.997 ± 0.036
CGATGGCTGG	0.976 ± 0.027
GGGTCTGGGG	0.995 ± 0.022
GGGGGGGGCA	0.985 ± 0.024
GCAATTTTTG	1.002 ± 0.0066
GAAGCAGGGG	2.26 ± 0.74
GATCATAATA	0.995 ± 0.043
CAATTCGAGC	0.988 ± 0.015
AATAGGGGTG	1.01 ± 0.043
AAAACGGCTC	1.01 ± 0.0097
CTGAGGGGGC	1.02 ± 0.016
TTCCGGTTTG	0.999 ± 0.054
GGGCGAAGGG	0.987 ± 0.032
TATTATGATC	1.03 ± 0.02
TCGCATAGGT	1.1 ± 0.12

Sequence	switch fluorescence ratio
TCGTTATCTT	0.979 ± 0.013
GTGGCCCCGG	1.02 ± 0.043
CAGGAGGGCA	1.042 ± 0.0049
GGTGAACCGT	1.001 ± 0.0046
AACAGGGGGC	1.04 ± 0.023
AGGTATTTG	0.986 ± 0.013
CAGGCCTGAC	1.02 ± 0.061
GGGTAGAAAG	0.97 ± 0.013
ACCGCGAAGG	1.025 ± 0.0058
ATTTGTGAGA	0.9979 ± 0.0051
GAGAGTGACT	0.969 ± 0.0083
TGGGGGTGCA	1.01 ± 0.035
GGGGAATGGT	1.01 ± 0.074
AGCGGTAGGG	1.022 ± 0.0082
GCCCTTGTCA	1.01 ± 0.019
GTCTATCTCT	1.013 ± 0.0093
TTATTTTTGG	0.989 ± 0.027
GTACTACCTA	1.14 ± 0.022
GTCCGGGGGC	1.13 ± 0.04
TAAAGAACCA	1.016 ± 0.0053
TTTTCAATGA	0.994 ± 0.041
CATTAGGGGT	0.978 ± 0.012
CAAATGGGAT	0.9951 ± 0.0099
TTGAGGTATG	0.9838 ± 0.0046
CGGCCCAAGG	1.22 ± 0.022

Sequence	switch fluorescence ratio
GCGATCAGAC	1.15 ± 0.015
AATATGGGTT	0.9802 ± 0.0091
CCCCTGTACT	1.227 ± 0.0074
TAATGTATGT	0.977 ± 0.018
ATAGGGTCGG	1.02 ± 0.063
TCCATTTTTT	0.992 ± 0.035
GGCAGTTTTT	0.985 ± 0.02
ACGTGGGGCT	1.05 ± 0.027
TATTTAAAAG	1.003 ± 0.009
TGGTAAACGG	0.988 ± 0.02
GATTCCCTAT	0.99995 ± 0.00076
GCATTTGGCT	1.027 ± 0.0064
GACGATTCTT	0.97989 ± 0.00092
AAGGTTCTTT	0.988 ± 0.022
GCAGGACGGA	1.03 ± 0.04
GCTTTTGGAG	1.008 ± 0.0047
ATGCGGCATT	1.03 ± 0.044
TTGGGTTCCG	0.996 ± 0.057
TTTGACGGGG	1.04 ± 0.096
TACAGCTGTG	0.9865 ± 0.0083
CACCTAGTTT	1.01 ± 0.052
CTGATGAGTT	0.982 ± 0.019
GTGGTATATG	0.997 ± 0.0073
TTTCCCAGGA	1.13 ± 0.038
TTCCAGGGTG	1.71 ± 0.92

Sequence	switch fluorescence ratio
GGGGGAACAG	0.991 ± 0.011
TGTTAGTCTG	1.03 ± 0.032
TGGGGTGGTG	0.9992 ± 0.0038
TTATTGTGTA	0.979 ± 0.025
TAGAATTTTT	0.998 ± 0.017
TTTGGTTGCT	0.991 ± 0.028
CTAGCCTCTT	0.995 ± 0.027
GATAGTGCTG	1.05 ± 0.12
CTAGTTGGTT	0.971 ± 0.028
GCTTATTCAG	0.976 ± 0.013
ACACTCTTGA	1.03 ± 0.025
ATGATGGTTA	0.9978 ± 0.0052
GCGGTGAGGG	0.993 ± 0.052
TTCTGATCAG	1.01 ± 0.011
GTTCTCCTGA	1.01 ± 0.014
ATGGTGTAGG	1.01 ± 0.012
TAGTAGGGGT	1.002 ± 0.0061
GTCCGGGTTT	1.01 ± 0.036
GTATGTGTCG	1.01 ± 0.017
TAAAGATATC	0.972 ± 0.028
AATCAATTAC	1.123 ± 0.011
CCGGGGTCCG	1.13 ± 0.041
ATCATAGCGG	1 ± 0.015
CAGTATGGGG	0.9664 ± 0.0013
TTGTCTGTTA	1 ± 0.043

Sequence	switch fluorescence ratio
AGTGGGGAGA	1.02 ± 0.035
AAGGGCTTGC	1.01 ± 0.041
GGCGGACAGG	1.038 ± 0.0062
AGGAGGGCTC	1.01 ± 0.11
ACAGTGCGGC	0.961 ± 0.035
GGGGATTATT	0.991 ± 0.036
TCAAAGGTTC	1.13 ± 0.16
TTTTTTGTAT	1.02 ± 0.087
AATGTGGACG	0.988 ± 0.04
ATCATTAGGA	0.9922 ± 0.0046
AGAGTTTTCT	0.9916 ± 0.0094
CCGGGGTTGT	1.16 ± 0.22
ACCGTCATTT	1.05 ± 0.046
GTATTAAACC	1.06 ± 0.023
GTAGCTTATC	2.08 ± 0.067
GATCTATGTT	0.996 ± 0.018
CGAGCGACGT	0.9863 ± 0.007
CATTTATAAG	0.977 ± 0.013
GCTTGTGTGA	0.999 ± 0.01
GGGGTTAGGT	1.01 ± 0.031
GGTTTAATTG	1.026 ± 0.0085
GGTCTGTTTC	1.01 ± 0.015
GTAGTAGCCA	1.01 ± 0.033
TGGGTAATCC	1.03 ± 0.025
AAAATTCTGC	1.06 ± 0.022

Sequence	switch fluorescence ratio
GGACGTTTTT	1.01 ± 0.015
TCTGTAGCTG	1.3 ± 0.015
ACGAGGGCGT	1.03 ± 0.017
AATATTTGGC	1 ± 0.059
GAAGGAACCG	1.025 ± 0.0063
TTGTTGCGGG	0.977 ± 0.019
CGGTGGGGCA	1.1 ± 0.13
AGGGGGTCCG	1.03 ± 0.049
AGGAGGCGCG	1.05 ± 0.1
GGCATCGTCG	0.97 ± 0.025
GGTTTAGCCT	1.04 ± 0.023
AACAGTTTTT	0.989 ± 0.044
GGTGTTGGGC	0.998 ± 0.067
TTGATTTTGC	0.993 ± 0.013
CTAATCGGTT	0.97 ± 0.029
CAGAGGGGGC	1.012 ± 0.0071
TATGGGCAGC	1.03 ± 0.018
AGAATATGGG	0.994 ± 0.011
TATGCATTTC	1.08 ± 0.0049
TCTGCATGTT	1.02 ± 0.012
TCGCTTGCGG	1 ± 0.032
TAATATTTTT	1 ± 0.017
TCGTCGTGGG	1.02 ± 0.025
TGGTGTGTTT	0.978 ± 0.035
AAAAAAAACC	1.4 ± 0.33
